# According to article doi:10.1101/2025.05.13.653872, “A novel non-catalytic function of PA2803-encoded PcrP contributes to polymyxin B resistance in P. aeruginosa and redefines the functional role of the PA2803 subfamily” (bioRxiv, 2025):
# Target: the molecule itself
# Assay: cross-linking; 50 μM purified PcrP with 0.02, 0.05, 0.1 and 0.2% glutaraldehyde for 2 min in 50 mM NaCl, 1% glycerol, 20 mM HEPES pH 7.8; stopped with Tris-HCl pH 8.0; 12% SDS-PAGE, Coomassie
protein,measurement,value
"6XHis-PcrP (PA2803), recombinant, purified (natural protein, PcrP (PA2803), P. aeruginosa PAO1; No tag cleavage step is described; The reverse primer carries the stop codon, so the His tag of the vector should be N-terminal; also called 6XHis-PA2803; pAAK001; source: E. coli BL21(DE3), purified (Ni-NTA)) MPSSDQLPRFTALLFGLSGGLVDFGARTLSLALLRSHPHSPAEHLRDASLLPFAEAQSFLLRRKPNKSERQRLEQALDEAAGEQAEAIAGAVALLESLDEQRIPYAWQDELPESVCQRLAAPLGRANALIPLAGARPWPAPDGCWQALARLGIERLDGCVLVSAQPRQLQAGLNAGLWTIGLAASGPSCGLSPADWDALGHTERDRLRADATLELYRLGVHSVIDHLGELQPCLHDLAVRRLKGEKP",stoichiometry N,2
